Measurements taken from patent publication US20200270588A1, “GLUCOSYL TRANSFERASE POLYPEPTIDES AND METHODS OF USE” (Syngenta Participations AG, priority 2017, published 2020).

Test: UDP luminescence plate assay of E. coli extracts, saturation mutants of SEQ ID NO: 1, herbicide V
Format: biochemical, Zea mays
Conditions: improvement factor relative to w/t bx9 = 1.0, rounded to nearest 0.5; extract activity basis; compound V

| Molecule | Preferred amino acid substitutions and (IF) based on RLU/min/ul | Most Preferred amino acid substitutions and (IF) based on RLU/min/ul |
| --- | --- | --- |
| L194T: bx9 SEQ ID NO:1 mutant (protein, Zea mays) MASSRTGAGAGGRVVVFPFPFQGHFNPVMRLARALHARGLAITVFHSGALDPADYPADYRFVPVTVEADPKLLASEDIAAIVTTLNASCDAPFRARLSALLAAEGRDSVRCVFTDVSWNAVLTASSDLGVPALGMMTASAASLRDYMAYRTLIDKGYLPVKEERKEDPVPELPPYLVKDLLRVDTSDLEEFAETLARTVTAARRASGLIFNTFPLIETDTLAEIHKALSVPVFAVAPLNKLVPTATASLHGVVQADRGCLQWLDTQQPGSVLYVSFGSMAAMDPHEFVELAWGLADSKRPFVWVVRPNLIRGFESGALPDGVEDEVRGRGIVVAWAPQEEVLAHPAVGGFLTHNGWNSTVEAISEGVPMVCCPRHGDQFGNMRYVCDVWKVGTELVGEQLERGQVKAAIDRLFGTKEGEEIKERMKEFKIAAAKGIGIGVDVDETASPRTDLTDLVDLIKSF | 1.5 | – |
| L194I: bx9 SEQ ID NO:1 mutant (protein, Zea mays) MASSRTGAGAGGRVVVFPFPFQGHFNPVMRLARALHARGLAITVFHSGALDPADYPADYRFVPVTVEADPKLLASEDIAAIVTTLNASCDAPFRARLSALLAAEGRDSVRCVFTDVSWNAVLTASSDLGVPALGMMTASAASLRDYMAYRTLIDKGYLPVKEERKEDPVPELPPYLVKDLLRVDTSDLEEFAEILARTVTAARRASGLIFNTFPLIETDTLAEIHKALSVPVFAVAPLNKLVPTATASLHGVVQADRGCLQWLDTQQPGSVLYVSFGSMAAMDPHEFVELAWGLADSKRPFVWVVRPNLIRGFESGALPDGVEDEVRGRGIVVAWAPQEEVLAHPAVGGFLTHNGWNSTVEAISEGVPMVCCPRHGDQFGNMRYVCDVWKVGTELVGEQLERGQVKAAIDRLFGTKEGEEIKERMKEFKIAAAKGIGIGVDVDETASPRTDLTDLVDLIKSF | – | 2.0 |
| L194V: bx9 SEQ ID NO:1 mutant (protein, Zea mays) MASSRTGAGAGGRVVVFPFPFQGHFNPVMRLARALHARGLAITVFHSGALDPADYPADYRFVPVTVEADPKLLASEDIAAIVTTLNASCDAPFRARLSALLAAEGRDSVRCVFTDVSWNAVLTASSDLGVPALGMMTASAASLRDYMAYRTLIDKGYLPVKEERKEDPVPELPPYLVKDLLRVDTSDLEEFAEVLARTVTAARRASGLIFNTFPLIETDTLAEIHKALSVPVFAVAPLNKLVPTATASLHGVVQADRGCLQWLDTQQPGSVLYVSFGSMAAMDPHEFVELAWGLADSKRPFVWVVRPNLIRGFESGALPDGVEDEVRGRGIVVAWAPQEEVLAHPAVGGFLTHNGWNSTVEAISEGVPMVCCPRHGDQFGNMRYVCDVWKVGTELVGEQLERGQVKAAIDRLFGTKEGEEIKERMKEFKIAAAKGIGIGVDVDETASPRTDLTDLVDLIKSF | – | C,N,V(3.0) |
| L195I: bx9 SEQ ID NO:1 mutant (protein, Zea mays) MASSRTGAGAGGRVVVFPFPFQGHFNPVMRLARALHARGLAITVFHSGALDPADYPADYRFVPVTVEADPKLLASEDIAAIVTTLNASCDAPFRARLSALLAAEGRDSVRCVFTDVSWNAVLTASSDLGVPALGMMTASAASLRDYMAYRTLIDKGYLPVKEERKEDPVPELPPYLVKDLLRVDTSDLEEFAELIARTVTAARRASGLIFNTFPLIETDTLAEIHKALSVPVFAVAPLNKLVPTATASLHGVVQADRGCLQWLDTQQPGSVLYVSFGSMAAMDPHEFVELAWGLADSKRPFVWVVRPNLIRGFESGALPDGVEDEVRGRGIVVAWAPQEEVLAHPAVGGFLTHNGWNSTVEAISEGVPMVCCPRHGDQFGNMRYVCDVWKVGTELVGEQLERGQVKAAIDRLFGTKEGEEIKERMKEFKIAAAKGIGIGVDVDETASPRTDLTDLVDLIKSF | I(1.0) | – |
| L194C: bx9 SEQ ID NO:1 mutant (protein, Zea mays) MASSRTGAGAGGRVVVFPFPFQGHFNPVMRLARALHARGLAITVFHSGALDPADYPADYRFVPVTVEADPKLLASEDIAAIVTTLNASCDAPFRARLSALLAAEGRDSVRCVFTDVSWNAVLTASSDLGVPALGMMTASAASLRDYMAYRTLIDKGYLPVKEERKEDPVPELPPYLVKDLLRVDTSDLEEFAECLARTVTAARRASGLIFNTFPLIETDTLAEIHKALSVPVFAVAPLNKLVPTATASLHGVVQADRGCLQWLDTQQPGSVLYVSFGSMAAMDPHEFVELAWGLADSKRPFVWVVRPNLIRGFESGALPDGVEDEVRGRGIVVAWAPQEEVLAHPAVGGFLTHNGWNSTVEAISEGVPMVCCPRHGDQFGNMRYVCDVWKVGTELVGEQLERGQVKAAIDRLFGTKEGEEIKERMKEFKIAAAKGIGIGVDVDETASPRTDLTDLVDLIKSF | – | C,N,V(3.0) |
| V199N: bx9 SEQ ID NO:1 mutant (protein, Zea mays) MASSRTGAGAGGRVVVFPFPFQGHFNPVMRLARALHARGLAITVFHSGALDPADYPADYRFVPVTVEADPKLLASEDIAAIVTTLNASCDAPFRARLSALLAAEGRDSVRCVFTDVSWNAVLTASSDLGVPALGMMTASAASLRDYMAYRTLIDKGYLPVKEERKEDPVPELPPYLVKDLLRVDTSDLEEFAELLARTNTAARRASGLIFNTFPLIETDTLAEIHKALSVPVFAVAPLNKLVPTATASLHGVVQADRGCLQWLDTQQPGSVLYVSFGSMAAMDPHEFVELAWGLADSKRPFVWVVRPNLIRGFESGALPDGVEDEVRGRGIVVAWAPQEEVLAHPAVGGFLTHNGWNSTVEAISEGVPMVCCPRHGDQFGNMRYVCDVWKVGTELVGEQLERGQVKAAIDRLFGTKEGEEIKERMKEFKIAAAKGIGIGVDVDETASPRTDLTDLVDLIKSF | M,N(1.0) | – |
| A202C: bx9 SEQ ID NO:1 mutant (protein, Zea mays) MASSRTGAGAGGRVVVFPFPFQGHFNPVMRLARALHARGLAITVFHSGALDPADYPADYRFVPVTVEADPKLLASEDIAAIVTTLNASCDAPFRARLSALLAAEGRDSVRCVFTDVSWNAVLTASSDLGVPALGMMTASAASLRDYMAYRTLIDKGYLPVKEERKEDPVPELPPYLVKDLLRVDTSDLEEFAELLARTVTACRRASGLIFNTFPLIETDTLAEIHKALSVPVFAVAPLNKLVPTATASLHGVVQADRGCLQWLDTQQPGSVLYVSFGSMAAMDPHEFVELAWGLADSKRPFVWVVRPNLIRGFESGALPDGVEDEVRGRGIVVAWAPQEEVLAHPAVGGFLTHNGWNSTVEAISEGVPMVCCPRHGDQFGNMRYVCDVWKVGTELVGEQLERGQVKAAIDRLFGTKEGEEIKERMKEFKIAAAKGIGIGVDVDETASPRTDLTDLVDLIKSF | S,I,C,M(1.0) | – |
| L194Q: bx9 SEQ ID NO:1 mutant (protein, Zea mays) MASSRTGAGAGGRVVVFPFPFQGHFNPVMRLARALHARGLAITVFHSGALDPADYPADYRFVPVTVEADPKLLASEDIAAIVTTLNASCDAPFRARLSALLAAEGRDSVRCVFTDVSWNAVLTASSDLGVPALGMMTASAASLRDYMAYRTLIDKGYLPVKEERKEDPVPELPPYLVKDLLRVDTSDLEEFAEQLARTVTAARRASGLIFNTFPLIETDTLAEIHKALSVPVFAVAPLNKLVPTATASLHGVVQADRGCLQWLDTQQPGSVLYVSFGSMAAMDPHEFVELAWGLADSKRPFVWVVRPNLIRGFESGALPDGVEDEVRGRGIVVAWAPQEEVLAHPAVGGFLTHNGWNSTVEAISEGVPMVCCPRHGDQFGNMRYVCDVWKVGTELVGEQLERGQVKAAIDRLFGTKEGEEIKERMKEFKIAAAKGIGIGVDVDETASPRTDLTDLVDLIKSF | 1.5 | – |
| T198V: bx9 SEQ ID NO:1 mutant (protein, Zea mays) MASSRTGAGAGGRVVVFPFPFQGHFNPVMRLARALHARGLAITVFHSGALDPADYPADYRFVPVTVEADPKLLASEDIAAIVTTLNASCDAPFRARLSALLAAEGRDSVRCVFTDVSWNAVLTASSDLGVPALGMMTASAASLRDYMAYRTLIDKGYLPVKEERKEDPVPELPPYLVKDLLRVDTSDLEEFAELLARVVTAARRASGLIFNTFPLIETDTLAEIHKALSVPVFAVAPLNKLVPTATASLHGVVQADRGCLQWLDTQQPGSVLYVSFGSMAAMDPHEFVELAWGLADSKRPFVWVVRPNLIRGFESGALPDGVEDEVRGRGIVVAWAPQEEVLAHPAVGGFLTHNGWNSTVEAISEGVPMVCCPRHGDQFGNMRYVCDVWKVGTELVGEQLERGQVKAAIDRLFGTKEGEEIKERMKEFKIAAAKGIGIGVDVDETASPRTDLTDLVDLIKSF | – | V(2.0) |
| L194N: bx9 SEQ ID NO:1 mutant (protein, Zea mays) MASSRTGAGAGGRVVVFPFPFQGHFNPVMRLARALHARGLAITVFHSGALDPADYPADYRFVPVTVEADPKLLASEDIAAIVTTLNASCDAPFRARLSALLAAEGRDSVRCVFTDVSWNAVLTASSDLGVPALGMMTASAASLRDYMAYRTLIDKGYLPVKEERKEDPVPELPPYLVKDLLRVDTSDLEEFAENLARTVTAARRASGLIFNTFPLIETDTLAEIHKALSVPVFAVAPLNKLVPTATASLHGVVQADRGCLQWLDTQQPGSVLYVSFGSMAAMDPHEFVELAWGLADSKRPFVWVVRPNLIRGFESGALPDGVEDEVRGRGIVVAWAPQEEVLAHPAVGGFLTHNGWNSTVEAISEGVPMVCCPRHGDQFGNMRYVCDVWKVGTELVGEQLERGQVKAAIDRLFGTKEGEEIKERMKEFKIAAAKGIGIGVDVDETASPRTDLTDLVDLIKSF | – | C,N,V(3.0) |
| L194A: bx9 SEQ ID NO:1 mutant (protein, Zea mays) MASSRTGAGAGGRVVVFPFPFQGHFNPVMRLARALHARGLAITVFHSGALDPADYPADYRFVPVTVEADPKLLASEDIAAIVTTLNASCDAPFRARLSALLAAEGRDSVRCVFTDVSWNAVLTASSDLGVPALGMMTASAASLRDYMAYRTLIDKGYLPVKEERKEDPVPELPPYLVKDLLRVDTSDLEEFAEALARTVTAARRASGLIFNTFPLIETDTLAEIHKALSVPVFAVAPLNKLVPTATASLHGVVQADRGCLQWLDTQQPGSVLYVSFGSMAAMDPHEFVELAWGLADSKRPFVWVVRPNLIRGFESGALPDGVEDEVRGRGIVVAWAPQEEVLAHPAVGGFLTHNGWNSTVEAISEGVPMVCCPRHGDQFGNMRYVCDVWKVGTELVGEQLERGQVKAAIDRLFGTKEGEEIKERMKEFKIAAAKGIGIGVDVDETASPRTDLTDLVDLIKSF | – | 2.5 |
